B1: VDR aa118-427 (recombinant) (domain or fragment, UniProt P11473 118-427, looked up)
chain: DSLRPKLSEEQQRIIAILLDAHHKTYDPTYSDFCQFRPPVRVNDGGGSHPSRPNSRHTPSFSGDSSSSCSDHCITSSDMMDSSSFSNLDLSEEDSDDPSVTLELSQLSMLPHLADLVSYSIQKVIGFAKMIPGFRDLTSEDQIVLLKSSAIEVIMLRSNESFTMDDMSWTCGNQDYKYRVSDVTKAGHSLELIEPLIKFQVGLKKLNLHEEEHVLLMAICIVSPDRPGVQDAALIEAIQDRLSNTLQTYIRCRHPPPGSHLLYAKMIQKLADLRSLNEEHSKQYRCLSFQPECSMKLTPLVLEVFGNEIS
notes: also called vitamin D receptor; source: E. coli BL21-CodonPlus(DE3)-RIL, purified (HisTrap, SEC)
B2: Fluorescein-labelled NCOA1 peptide residues 687–698 (Flc-ARHKILHRLLQEGS) (peptide)
peptide: {fluorescein″}-ARHKILHRLLQEGS
notes: NCOA1 LxxLL peptide, printed as residues 687-698; also called Fluorescein NCOA1 peptide aa687-698; source: synthetic peptide; bought: Peptides & Elephants
B3: His-tagged ER ligand-binding domain (aa301-552) (domain or fragment, UniProt P03372 301-552, looked up)
chain: SKKNSLALSLTADQMVSALLDAEPPILYSEYDPTRPFSEASMMGLLTNLADRELVHMINWAKRVPGFVDLTLHDQVHLLECAWLEILMIGLVWRSMEHPGKLLFAPNLLLDRNQGKCVEGMVEIFDMLLATSSRFRMMNLQGEEFVCLKSIILLNSGVYTFLSSTLKSLEEKDHIHRVLDKITDTLIHLMAKAGLTLQQQHQRLAQLLLILSHIRHMSNKGMEHLYSMKCKNVVPLYDLLLEMLDAHRLHAP
notes: also called estrogen receptor; source: E. coli BL21-CodonPlus(DE3)-RIL, purified (HisTrap, SEC); not shown: His6, N-terminal, kept
B4: His-tagged RARA ligand-binding domain (aa175-421) (domain or fragment, UniProt P10276 175-421, looked up)
chain: SESYTLTPEVGELIEKVRKAHQETFPALCQLGKYTTNNSSEQRVSLDIDLWDKFSELSTKCIIKTVEFAKQLPGFTTLTIADQITLLKAACLDILILRICTRYTPEQDTMTFSDGLTLNRTQMHNAGFGPLTDLVFAFANQLLPLEMDDAETGLLSAICLICGDRQDLEQPDRVDMLQEPLLEALKVYVRKRRPSRPHMFPKMLMKITDLRSISAKGAERVITLKMEIPGSMPPLIQEMLENSEGLD
notes: no cleavage of the His6-Smt3 fusion is described, and the protein is called His-tagged in the pull-downs, so Smt3 was probably still on; also called His-RARA; RARA LBD; source: E. coli BL21-CodonPlus(DE3)-RIL, purified (HisTrap, SEC); not shown: His6, N-terminal, kept
B5: RARA/RXRA heterodimer (ligand-binding domains) (complex)
chain 1: B4 chain
chain 2: SSANEDMPVERILEAELAVEPKTETYVEANMGLNPSSPNDPVTNICQAADKQLFTLVEWAKRIPHFSELPLDDQVILLRAGWNELLIASFSHRSIAVKDGILLATGLHVHRNSAHSAGVGAIFDRVLTELVSKMRDMQMDKTELGCLRAIVLFNPDSKGLSNPAEVEALREKVYASLEAYCKHKYPEQPGRFAKLLLRLPALRSIGLKCLEHLFFFKLIGDTPIDTFLMEMLEAPHQMT
notes: LBD constructs are stated for the negative stain EM; also called RARA/RXRA^LBD; RARA/RXRA LBD heterodimer; source: E. coli BL21-CodonPlus(DE3)-RIL, purified (HisTrap, SEC); not shown: His6, N-terminal, kept

Primed or numbered codes have the meaning given here. No end group written: not given here. fluorescein″ = fluorescein (FAM) label on the N-terminus (fluorescent label)

Test [1] has as its target T1, Full-length human FLAG-UBR5 (human, UniProt O95071 1-2799).
T1 construct: UBR5 (ubiquitin protein ligase E3 component n-recognin 5), human, full length; Tetramer by SEC-MALS and cryo-EM; also called ubiquitin protein ligase E3 component n-recognin 5; UBR5 tetramer, WT; source: HEK293F (Expi293 system), transient expression, purified (FLAG M2, Mono Q, Superose 6); not shown: FLAG, N-terminal, kept
Briefly: pull-down; FLAG-UBR5 (15 pmol) immobilised on FLAG M2 beads, 150 pmol nuclear receptor protein added with 50 μM agonist ligand (ATRA, 9-cis RA, both, estradiol or calcitriol); 25 mM HEPES pH 7.4, 125 mM NaCl, 0.05% TWEEN-20; 4°C; eluted with 3xFLAG peptide, western blot. Particulars: both partners purified.

The target in test [2] is B5. Description: fluorescence polarisation; competitive reverse titration: tracer Flc-NCOA1 peptide 10 nM and RARA/RXRA 0.5 μM, unlabeled competitor peptides 0–85 μM; 20 mM HEPES pH 7.4, 110 mM NaCl, 500 μM TCEP, 1% glycerol, 0.1% pluronic acid, with or without 100 μM all-trans-retinoic acid; room temperature. The following applies: both partners purified. (In fluorescence polarisation assays a small probe gives low polarisation when free and higher when bound to something large.)

These results are taken from article PMC11134608, “UBR5 forms ligand-dependent complexes on chromatin to regulate nuclear hormone receptor stability” (Molecular cell, 2023).

T1 sequence (O95071 whole entry): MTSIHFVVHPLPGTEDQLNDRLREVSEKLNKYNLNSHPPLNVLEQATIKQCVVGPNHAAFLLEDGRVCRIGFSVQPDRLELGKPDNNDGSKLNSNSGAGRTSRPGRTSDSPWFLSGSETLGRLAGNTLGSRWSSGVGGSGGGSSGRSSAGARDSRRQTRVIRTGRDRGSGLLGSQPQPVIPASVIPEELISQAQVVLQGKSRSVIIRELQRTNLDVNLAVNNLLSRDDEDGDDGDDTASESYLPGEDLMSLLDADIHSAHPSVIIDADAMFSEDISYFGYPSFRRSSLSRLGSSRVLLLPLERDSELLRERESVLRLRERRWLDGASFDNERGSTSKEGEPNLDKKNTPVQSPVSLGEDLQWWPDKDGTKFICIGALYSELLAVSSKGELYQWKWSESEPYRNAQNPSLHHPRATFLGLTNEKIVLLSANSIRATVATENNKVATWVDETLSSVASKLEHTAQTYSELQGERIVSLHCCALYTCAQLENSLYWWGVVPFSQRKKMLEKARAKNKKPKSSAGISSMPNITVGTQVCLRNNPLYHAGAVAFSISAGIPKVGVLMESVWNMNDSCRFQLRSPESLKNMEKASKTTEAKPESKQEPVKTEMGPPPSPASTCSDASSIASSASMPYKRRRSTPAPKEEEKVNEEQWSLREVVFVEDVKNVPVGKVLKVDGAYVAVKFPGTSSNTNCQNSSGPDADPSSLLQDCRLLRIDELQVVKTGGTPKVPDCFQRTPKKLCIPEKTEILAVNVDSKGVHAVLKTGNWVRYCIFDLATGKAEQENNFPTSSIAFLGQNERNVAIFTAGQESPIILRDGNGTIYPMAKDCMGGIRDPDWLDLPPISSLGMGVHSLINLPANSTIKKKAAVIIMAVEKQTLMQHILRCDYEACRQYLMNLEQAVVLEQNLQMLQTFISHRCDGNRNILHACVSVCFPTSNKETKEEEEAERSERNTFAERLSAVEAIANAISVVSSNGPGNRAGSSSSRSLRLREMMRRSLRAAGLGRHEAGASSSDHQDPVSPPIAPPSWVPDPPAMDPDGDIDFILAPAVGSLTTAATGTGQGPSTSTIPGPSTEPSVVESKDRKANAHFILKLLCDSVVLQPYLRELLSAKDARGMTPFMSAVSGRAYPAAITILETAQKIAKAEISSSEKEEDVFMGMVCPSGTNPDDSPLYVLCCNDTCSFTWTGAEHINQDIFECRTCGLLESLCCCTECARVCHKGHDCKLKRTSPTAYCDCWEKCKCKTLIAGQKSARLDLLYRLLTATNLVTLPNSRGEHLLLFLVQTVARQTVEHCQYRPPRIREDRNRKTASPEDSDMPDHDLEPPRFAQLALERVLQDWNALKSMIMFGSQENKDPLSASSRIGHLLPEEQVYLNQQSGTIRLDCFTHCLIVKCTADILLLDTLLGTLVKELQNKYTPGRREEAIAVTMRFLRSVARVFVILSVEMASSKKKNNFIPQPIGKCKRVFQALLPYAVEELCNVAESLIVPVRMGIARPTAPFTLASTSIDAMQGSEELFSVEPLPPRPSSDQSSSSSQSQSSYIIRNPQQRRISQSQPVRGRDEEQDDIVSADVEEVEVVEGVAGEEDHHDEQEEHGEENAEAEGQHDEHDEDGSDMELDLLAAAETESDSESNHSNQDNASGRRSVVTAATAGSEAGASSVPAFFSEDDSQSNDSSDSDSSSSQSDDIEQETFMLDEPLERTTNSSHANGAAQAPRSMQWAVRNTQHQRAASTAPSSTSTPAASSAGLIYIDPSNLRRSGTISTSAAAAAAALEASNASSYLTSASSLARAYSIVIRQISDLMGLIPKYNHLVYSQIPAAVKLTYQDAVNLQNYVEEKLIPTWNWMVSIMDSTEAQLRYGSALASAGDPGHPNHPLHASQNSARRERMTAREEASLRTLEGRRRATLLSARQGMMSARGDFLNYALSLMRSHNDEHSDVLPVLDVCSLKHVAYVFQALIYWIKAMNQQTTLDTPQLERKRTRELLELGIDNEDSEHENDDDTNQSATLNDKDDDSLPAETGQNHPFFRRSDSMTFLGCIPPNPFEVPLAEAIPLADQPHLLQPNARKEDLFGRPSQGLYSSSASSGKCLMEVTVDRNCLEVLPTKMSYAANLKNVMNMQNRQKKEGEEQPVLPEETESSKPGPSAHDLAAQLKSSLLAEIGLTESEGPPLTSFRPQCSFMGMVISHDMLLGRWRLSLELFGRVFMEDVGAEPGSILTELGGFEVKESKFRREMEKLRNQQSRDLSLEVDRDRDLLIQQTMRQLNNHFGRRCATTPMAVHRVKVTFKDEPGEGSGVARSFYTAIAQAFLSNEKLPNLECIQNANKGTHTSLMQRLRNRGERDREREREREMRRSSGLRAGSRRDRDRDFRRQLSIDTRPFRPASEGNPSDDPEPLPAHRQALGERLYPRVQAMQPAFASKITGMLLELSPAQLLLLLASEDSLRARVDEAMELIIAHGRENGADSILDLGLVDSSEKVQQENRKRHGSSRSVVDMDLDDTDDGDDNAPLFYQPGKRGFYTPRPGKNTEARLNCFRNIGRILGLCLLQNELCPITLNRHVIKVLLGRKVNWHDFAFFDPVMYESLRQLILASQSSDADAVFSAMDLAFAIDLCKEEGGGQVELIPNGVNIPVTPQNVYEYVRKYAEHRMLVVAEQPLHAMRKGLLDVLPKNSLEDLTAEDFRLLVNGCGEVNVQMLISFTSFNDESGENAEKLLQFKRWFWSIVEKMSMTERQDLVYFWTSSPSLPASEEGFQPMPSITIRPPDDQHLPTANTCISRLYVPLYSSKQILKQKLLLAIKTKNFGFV

With B1, the binding result in test [1] is “binds”.
In the case of B2, in test [2], the binding result was “binds”.
For the molecule B3, the binding result in test [1] was “binds”.
B4: the binding result in test [1] was “binds”.
Same read-out and setting: with B5 the entry was “binds”.
